Assay results: paper PMC9241285

Target: recombinant human Aβ42 sodium hydroxide (NaOH) salt (human) (UniProt P05067)

Sequence of recombinant human apoE4 (P02649 19-317): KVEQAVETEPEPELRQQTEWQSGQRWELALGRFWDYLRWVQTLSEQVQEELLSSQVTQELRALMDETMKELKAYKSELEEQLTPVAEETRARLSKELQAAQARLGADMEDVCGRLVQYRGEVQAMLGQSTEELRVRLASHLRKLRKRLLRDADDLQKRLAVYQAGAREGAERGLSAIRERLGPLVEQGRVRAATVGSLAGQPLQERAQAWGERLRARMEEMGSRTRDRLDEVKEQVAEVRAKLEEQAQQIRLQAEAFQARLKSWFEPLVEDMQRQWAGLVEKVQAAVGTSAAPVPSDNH

recombinant human apoE4 (from UniProt P02649 19-317) (natural protein)
> 30%: reduction of apoE4-catalyzed Aβ42 fibrillization (ThT, HTS assay) by imipramine at 0.25, 2.5 and 25 μM; no effect on Aβ42 alone | reduction of apoE4-catalyzed Aβ42 fibrillization (ThT, HTS assay) by olanzapine at 0.25, 2.5 and 25 μM; no effect on Aβ42 alone | reduction of apoE4-catalyzed Aβ42 fibrillization (ThT, HTS assay) by sulfacetamide at 0.25, 2.5 and 25 μM; no effect on Aβ42 alone
